According to patent publication US20250177432A1, “RNA MOLECULES AND COMPOSITIONS FOR CANCER IMMUNOTHERAPY” (WUHAN HOUXIAN BIOPHARMACEUTICAL CO. LTD., priority 2023, published 2025):
Entries after “also recorded” stand apart in the source; their conditions may differ.

Experiments:
CT26 tumor cells = experiment: CT26 tumor model, IL-12/OX40L plus additional agent mRNA (Example 4); type: in vivo, mice; conditions: 1.5 μg mRNA in total, days 9 and 12; for effect of adding the agent on the efficacy of the IL-12/OX40L combination: added agent fused to OX40L mRNA through IRES
Experimental: All of these agents were delivered, in various combinations, to the same animal model as used above, as mRNA (1.5 μg in total), on days 9 and 12, post-tumor cell implantation. While IL-12 and OX40L were encoded on different constructs, the added agent (e.g., FADD) was fused to the OX40L mRNA, through an IRES elements.
All the test agents were safe in the animals (FIG. 8).

[1] = Translation of codon optimized OX40L and IL-12 mRNA; type: cell-based; conditions: FIG. 17
Text: Further, codon optimization was applied to the sequences of OX40L and IL-12 mRNA.

B1: MLKL: mRNA encoding MLKL (mixed lineage kinase domain like pseudokinase) or its four-helix bundle domain (nucleic acid)
chain: AUGGAAAAUUUGAAGCAUAUUAUCACCCUUGGCCAGGUCAUCCACAAACGGUGUGAAGAGAUGAAAUACUGCAAGAAACAGUGCCGGCGCCUGGGCCACCGCGUCCUCGGCCUGAUCAAGCCUCUGGAGAUGCUCCAGGACCAAGGAAAGAGGAGCGUGCCCUCUGAGAAGUUAACCACAGCCAUGAACCGCUUCAAGGCUGCCCUGGAGGAGGCUAAUGGGGAGAUAGAAAAGUUCAGCAAUAGAUCCAAUAUCUGCAGGUUUCUAACAGCAAGCCAGGACAAAAUACUCUUCAAGGACGUGAACAGGAAGCUGAGUGAUGUCUGGAAGGAGCUCUCGCUGUUACUUCAGGUUGAGCAACGCAUGCCUGUUUCACCCAUAAGCCAAGGAGCGUCCUGGGCACAGGAAGAUCAGCAGGAUGCAGACGAAGACAGGCGAGCUUUCCAGAUGCUAAGAAGAGAUAAUGAAAAAAUAGAAGCUUCACUGAGACGAUUAGAAAUCAACAUGAAAGAAAUCAAGGAAACUUUGAGGCAGUAUUUACCACCAAAAUGCAUGCAGGAGAUCCCGCAAGAGCAAAUCAAGGAGAUCAAGAAGGAGCAGCUUUCAGGAUCCCCGUGGAUUCUGCUAAGGGAAAAUGAAGUCAGCACACUUUAUAAAGGAGAAUACCACAGAGCUCCAGUGGCCAUAAAAGUAUUCAAAAAACUCCAGGCUGGCAGCAUUGCAAUAGUGAGGCAGACUUUCAAUAAGGAGAUCAAAACCAUGAAGAAAUUCGAAUCUCCCAACAUCCUGCGUAUAUUUGGGAUUUGCAUUGAUGAAACAGUGACUCCGCCUCAAUUCUCCAUUGUCAUGGAGUACUGUGAACUCGGGACCCUGAGGGAGCUGUUGGAUAGGGAAAAAGACCUCACACUUGGCAAGCGCAUGGUCCUAGUCCUGGGGGCAGCCCGAGGCCUAUACCGGCUACACCAUUCAGAAGCACCUGAACUCCACGGAAAAAUCAGAAGCUCAAACUUCCUGGUAACUCAAGGCUACCAAGUGAAGCUUGCAGGAUUUGAGUUGAGGAAAACACAGACUUCCAUGAGUUUGGGAACUACGAGAGAAAAGACAGACAGAGUCAAAUCUACAGCAUAUCUCUCACCUCAGGAACUGGAAGAUGUAUUUUAUCAAUAUGAUGUAAAGUCUGAAAUAUACAGCUUUGGAAUCGUCCUCUGGGAAAUCGCCACUGGAGAUAUCCCGUUUCAAGGCUGUAAUUCUGAGAAGAUCCGCAAGCUGGUGGCUGUGAAGCGGCAGCAGGAGCCACUGGGUGAAGACUGCCCUUCAGAGCUGCGGGAGAUCAUUGAUGAGUGCCGGGCCCAUGAUCCCUCUGUGCGGCCCUCUGUGGAUGAAAUCUUAAAGAAACUCUCCACCUUUUCUAAGUAG
anti-tumor effect of the added agent alone (CT26 tumor cells): did not have observable anti-tumor effects
effect of adding the agent on the efficacy of the IL-12/OX40L combination (CT26 tumor cells): further increased the efficacy of the IL-12/OX12L combination; also recorded: greater than by GSDMD and TNFR

B2: #8: codon-optimized OX40L mRNA, SEQ ID NO:29 (nucleic acid)
chain: AUGGAGAGGGUGCAGCCCCUGGAGGAGAACGUUGGCAACGCCGCGAGGCCCAGGUUCGAGCGCAACAAGCUCCUCCUGGUUGCCAGCGUGAUCCAGGGGCUGGGGCUGCUGUUGUGCUUUACAUACAUUUGUUUGCACUUCAGCGCCCUGCAGGUGUCACACAGGUACCCUCGUAUCCAGAGUAUUAAGGUGCAGUUCACCGAGUACAAGAAGGAGAAGGGCUUCAUCUUGACCUCCCAGAAGGAGGACGAGAUAAUGAAGGUCCAGAACAACUCCGUAAUCAUCAACUGUGACGGAUUUUACCUUAUCAGCUUGAAGGGGUACUUCUCCCAGGAGGUGAACAUCAGCCUCCACUACCAGAAGGACGAGGAGCCCCUUUUCCAGCUGAAGAAGGUGAGAUCCGUCAACAGUCUGAUGGUUGCGAGUCUGACCUACAAGGAUAAGGUGUACCUGAAUGUGACCACCGACAACACCUCUCUCGAUGACUUUCACGUGAACGGGGGCGAGCUGAUUCUGAUCCAUCAGAAUCCCGGCGAGUUCUGCGUUCUGUGA
translation level [1]: relatively lower translation level

B3: FADD: mRNA encoding FADD (FAS-associated death domain protein) (nucleic acid)
chain: AUGGACCCGUUCCUGGUGCUGCUGCACUCGGUGUCGUCCAGCCUGUCGAGCAGCGAGCUGACCGAGCUCAAGUUCCUAUGCCUCGGGCGCGUGGGCAAGCGCAAGCUGGAGCGCGUGCAGAGCGGCCUAGACCUCUUCUCCAUGCUGCUGGAGCAGAACGACCUGGAGCCCGGGCACACCGAGCUCCUGCGCGAGCUGCUCGCCUCCCUGCGGCGCCACGACCUGCUGCGGCGCGUCGACGACUUCGAGGCGGGGGCGGCGGCCGGGGCCGCGCCUGGGGAAGAAGACCUGUGUGCAGCAUUUAACGUCAUAUGUGAUAAUGUGGGGAAAGAUUGGAGAAGGCUGGCUCGUCAGCUCAAAGUCUCAGACACCAAGAUCGACAGCAUCGAGGACAGAUACCCCCGCAACCUGACAGAGCGUGUGCGGGAGUCACUGAGAAUCUGGAAGAACACAGAGAAGGAGAACGCAACAGUGGCCCACCUGGUGGGGGCUCUCAGGUCCUGCCAGAUGAACCUGGUGGCUGACCUGGUACAAGAGGUUCAGCAGGCCCGUGACCUCCAGAACAGGAGUGGGGCCAUGUCCCCGAUGUCAUGGAACUCAGACGCAUCUACCUCCGAAGCGUCCUGA
anti-tumor effect of the added agent alone (CT26 tumor cells): did not have observable anti-tumor effects
effect of adding the agent on the efficacy of the IL-12/OX40L combination (CT26 tumor cells): further increased the efficacy of the IL-12/OX12L combination; also recorded: greater than by GSDMD and TNFR

B4: #10: codon-optimized OX40L mRNA, SEQ ID NO:31 (nucleic acid)
chain: AUGGAGCGGGUCCAGCCCCUGGAGGAGAACGUUGGCAACGCAGCGCGGCCCAGGUUCGAGAGGAACAAGCUGCUGCUGGUUGCCAGCGUGAUCCAGGGGCUGGGCCUGCUCCUGUGCUUCACCUACAUCUGCCUGCACUUCAGCGCACUGCAGGUGAGCCACAGGUAUCCCAGGAUACAGAGCAUCAAGGUGCAGUUCACCGAGUACAAGAAGGAGAAGGGCUUCAUCCUCACUUCCCAGAAGGAGGAUGAGAUCAUGAAGGUGCAGAACAACAGCGUGAUCAUCAACUGUGACGGCUUCUACCUGAUCAGCCUGAAGGGGUACUUCAGCCAGGAGGUGAACAUCAGCCUCCACUACCAGAAGGAUGAGGAGCCCCUGUUUCAGCUGAAGAAGGUGAGGUCCGUCAACAGUCUGAUGGUCGCGUCCUUGACCUACAAGGACAAGGUGUACCUGAACGUGACCACCGACAACACCAGCCUGGACGACUUCCAUGUGAACGGCGGUGAGCUGAUCUUGAUUCACCAGAACCCUGGUGAGUUCUGUGUCCUGUGA
translation level [1]: relatively lower translation level
